{
  "source": "patent US7906477B2",
  "about": "“Activation of peptide prodrugs by hK2” (Genspera, Inc., priority 2002, dated 2011)",
  "key": {"[1]": {"test_system": "T1, Cc1cc(=O)oc2cc(NC(=O)[C@H](CCCNC(=N)N)NC(=O)[C@H](Cc3ccccc3)NC(=O)[C@H](C)NC(=O)[C@H](CCCCN)NC(=O)CN)ccc12", "T1 construct": "made in house", "assay": "hK2 mediated hydrolysis of peptide substrates in solution (fluorescence)", "format": "biochemical, human", "settings": "other: Lineweaver-Burke reciprocal plots; 37.0 °C"}, "[2]": {"test_system": "T2, C[C@H](NC(=O)[C@H](CCCCN)NC(=O)CNC(=O)[C@@H](N)Cc1ccc(O)c([N+](=O)[O-])c1)C(=O)N[C@@H](Cc1ccccc1)C(=O)N[C@@H](CCCNC(=N)N)C(=O)N[C@@H](CCCNC(=N)N)C(=O)N[C@@H](CN)C(=O)N[C@@H](Cc1ccccc1)C(=O)N[C@@H](CCCCNC(=O)c1ccccc1N)C(=O)O", "T2 construct": "made in house", "assay": "hK2 mediated hydrolysis of peptide substrates in solution (fluorescence)", "format": "biochemical, human", "settings": "other: Lineweaver-Burke reciprocal plots; 37.0 °C", "experimental": "FIG. 2 depicts a graph of hK2 mediated hydrolysis of peptide substrates identified through the screening of a random peptide library [Y′GKARAF-Dap-FK′ (SEQ ID NO:36), Y′GKAKPR-Dap-FK′ (SEQ ID NO:37), Y′GKAFRR-Dap-FK′ (SEQ ID NO:38), Y′GKAMRQ-Dap-FK′ (SEQ ID NO:39) and Y′GSKGHFKL-Dap-F-K′ (SEQ ID NO:40)]. Substrates (250 μM) were incubated with 8 μg/ml hK2 in PBS buffer. Hydrolysis of peptide results in increased fluorescence, as measured using a 96 well fluorometer. […] To determine 100% digestion, trypsin was added (50 mg/ml) and samples were incubated to 37° C. for 30 min and the fluorescence was determined. The percentage digested is determined by dividing fluorescence units of sample by fluorescence units of control fully digested peptide.\nA mutant form of hK2 was utilized in which the amino acids −5 to −1 of the propeptide sequence of hK2 (i.e. Leu-Ile-Gln-Ser-Arg; SEQ ID NO:15) were mutated to Asp-Asp-Asp-Asp-Lys (SEQ ID NO:16) to generate a pro-hK2 protein that can be activated to functional hK2 by […] (Lovgren, J. et al. (1999) Eur. J. Biochem. 266:1050-1055). […]\nFor validation of the Edman results, peptides were re-synthesized using a Rainin PS3 peptide synthesizer with HBTU/NMM activation. […] Fluorescence measurements were performed on a Fluoroskan II 96-well plate reader (ICN biomedicals, Costa Mesa, Calif.; excitation, 355 nm; emission, 460 nm). Kinetic parameters were calculated as described earlier (Denmeade, S. R. et al. (1997) Cancer Res. 57:4924-4930).\nThe combinatorial screen identified seven arginine-containing peptides. […] All four arginine-containing sequences that were re-synthesized reproduced fluorescence when these peptides were digested on-bead with hK2. For a more quantitative analysis, the fluorescence-quenched peptides were cleaved off the resin and purified by HPLC. The rate of hydrolysis was quantified by measuring increase in fluorescence (Figure). […] In subsequent studies, hydrolysis rates using the Y′GKAFRR-Dap-F-K′ (SEQ ID NO:38) peptide were analyzed by Lineweaver-Burke reciprocal plots."}},
  "data": [
    {"substance": "hK2 (Homo sapiens)", "values": [
      {"measurement": "Km", "setting": "[1]", "value": 146, "unit": "µM"},
      {"measurement": "kcat", "setting": "[1]", "value": 0.13, "unit": "s⁻¹"},
      {"measurement": "kcat/Km", "setting": "[1]", "value": 895, "unit": "M⁻¹ s⁻¹"},
      {"measurement": "Km", "setting": "[2]", "value": 26.5, "unit": "µM"},
      {"measurement": "kcat", "setting": "[2]", "value": 1.09, "unit": "s⁻¹"},
      {"measurement": "kcat/Km", "setting": "[2]", "value": "41,132 sec^−1 M^−1"}
    ]}
  ]
}
